Patent publication US20030140381, “Genes and regulatory DNA sequences associated with stress-related gene expression in plants and methods of using the same” (Pioneer Hi-Bred International, Inc., published 2003)

B1: Adh1 promoter element (-246 to -229) (dsDNA)
DNA 1: CGCCGCCACCGCTTGGCG
DNA 2: CGCCAAGCGGTGGCGGCG
B2: ZmABI4 upstream element (-175 to -158) (dsDNA)
DNA 1: TTTGACCACCGCCCCTCT
DNA 2: AGAGGGGCGGTGGTCAAA

Assays:
[1] = biological target: T1, ZmABI4 (maize ABI4, AP2-domain transcription factor) (Zea mays); experiment: EMSA; described as high affinity
[2] = biological target: T1, ZmABI4 (maize ABI4, AP2-domain …); experiment: EMSA

T1 sequence (chain, as listed by the source): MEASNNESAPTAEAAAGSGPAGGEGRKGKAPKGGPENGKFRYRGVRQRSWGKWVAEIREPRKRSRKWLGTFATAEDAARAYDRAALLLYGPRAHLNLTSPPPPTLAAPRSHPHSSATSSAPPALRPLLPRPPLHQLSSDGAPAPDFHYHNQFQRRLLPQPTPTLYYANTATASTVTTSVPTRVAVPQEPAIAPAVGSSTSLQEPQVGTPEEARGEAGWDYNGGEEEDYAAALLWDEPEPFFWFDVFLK

Binder	binding result [1]	binding result [2]
B1	binds	
B2		binds
